Reference: patent publication US20230189818A1, “RNA-BASED CONTROL OF BOTRYTIS” (priority 2021, published 2023)

B1: GS2280: dsRNA trigger targeting B. cinerea Bcmcm4 (XM_024696090.1); trigger SEQ ID NO 21, RNA 33, reverse complement 45 (nucleic acid, listed as Botrytis cinerea)
sense: AAUGUCCUCGUCCGGUUUGUAAAUCUCCAAACUCCAUGCAGAUUGUACACAACAGGUCUGGAUUCAUGGAUAAGCAAGUUAUCAAGCUUCAAGAAACUCCAGAUUCCGUUCCUGCUGGUCAAACACCACAUUCCGUCUCGAUGUGUGCAUAUGAUGAGUUGGUGGAUCUGUGCAAAGCUGGUGACAGAGUUGAGAUUACUGGUAUCUUCAAAGCUAGUCCAGUUCGUGUCAAUCCUCGCCAAAGAACUCUCAAAAGCAUUUAUAAAACGUACAUCGACGUUUUACACAUUCAAAAGGUUGACAAGAAAAGAAUGGGAAUUGAUGCUUCGACCGUUGAGCAAGAAAUAUCCGAUCAGUUGACAGGCAACAUUGAAGAAACUAGAAAGGUUUCUGAAGAGGAGGAAGAAAAAAUCAGAGAAACCGCUGCAAGACCCGAUAUCUACGAACUUCUAUCUCGAUCCCUCGCACCUAGUAUUUUUGAGAUGGACGAUGUUAAGAAGGGUAUCUUGCUUCAAUUAUUUGGUGGAACUAACAAGUCUUUCGAAAAAGGAGGAAGUCCAAAAUACAGAGGAGAUAUCAAUAUUCUAUUGU
antisense: ACAAUAGAAUAUUGAUAUCUCCUCUGUAUUUUGGACUUCCUCCUUUUUCGAAAGACUUGUUAGUUCCACCAAAUAAUUGAAGCAAGAUACCCUUCUUAACAUCGUCCAUCUCAAAAAUACUAGGUGCGAGGGAUCGAGAUAGAAGUUCGUAGAUAUCGGGUCUUGCAGCGGUUUCUCUGAUUUUUUCUUCCUCCUCUUCAGAAACCUUUCUAGUUUCUUCAAUGUUGCCUGUCAACUGAUCGGAUAUUUCUUGCUCAACGGUCGAAGCAUCAAUUCCCAUUCUUUUCUUGUCAACCUUUUGAAUGUGUAAAACGUCGAUGUACGUUUUAUAAAUGCUUUUGAGAGUUCUUUGGCGAGGAUUGACACGAACUGGACUAGCUUUGAAGAUACCAGUAAUCUCAACUCUGUCACCAGCUUUGCACAGAUCCACCAACUCAUCAUAUGCACACAUCGAGACGGAAUGUGGUGUUUGACCAGCAGGAACGGAAUCUGGAGUUUCUUGAAGCUUGAUAACUUGCUUAUCCAUGAAUCCAGACCUGUUGUGUACAAUCUGCAUGGAGUUUGGAGAUUUACAAACCGGACGAGGACAUU
B2: GS730: dsRNA trigger targeting B. cinerea Bcsec15 (XM_024692064.1); trigger SEQ ID NO 19, RNA 31, reverse complement 43 (nucleic acid, listed as Botrytis cinerea)
sense: UCAACGCAGUCUCCAAAGCUUUGGAUGAAUUCGAUAACCCGGAUGUUAUUCUGCAAACCAAGAAUGUGAUAGCAUUGUUCAUCCAAACAAUGGAGGGUUGGGGAUAUUCAGUUGCCAUAUUAGAUGCUUAUGUGCUUAAGCUUUUCUAUAGAUAUGCUGAUUUGUUAAAACGGAAAUUCAGCACAGAUUUUCAACAGAUUGUGUCUACCGAUGAAUACAUGCCUAUGCCUGUCAAUAGCGAAGAAGACUUUGAUAAAAUCAUUCAAGUCAGUUGGUAUGUUCCGGACAGACCGAAAGAAGAAUACACAUUCCCCGGUGUAUUACCAUUCUCCCAGAUGUACCCAAUGUGCUGUAUAGAUAUCAGAAAUUUCCUGAAUCGAUUCUACUUCAUAAUGGAUGAUCAUUUUCAACAGCCAAACAUUAUUGAUGAGACACUUAAGAAGUCGAUAGAUGAGCUUCUGUCUGAGGAUAUUUGUGA
antisense: UCACAAAUAUCCUCAGACAGAAGCUCAUCUAUCGACUUCUUAAGUGUCUCAUCAAUAAUGUUUGGCUGUUGAAAAUGAUCAUCCAUUAUGAAGUAGAAUCGAUUCAGGAAAUUUCUGAUAUCUAUACAGCACAUUGGGUACAUCUGGGAGAAUGGUAAUACACCGGGGAAUGUGUAUUCUUCUUUCGGUCUGUCCGGAACAUACCAACUGACUUGAAUGAUUUUAUCAAAGUCUUCUUCGCUAUUGACAGGCAUAGGCAUGUAUUCAUCGGUAGACACAAUCUGUUGAAAAUCUGUGCUGAAUUUCCGUUUUAACAAAUCAGCAUAUCUAUAGAAAAGCUUAAGCACAUAAGCAUCUAAUAUGGCAACUGAAUAUCCCCAACCCUCCAUUGUUUGGAUGAACAAUGCUAUCACAUUCUUGGUUUGCAGAAUAACAUCCGGGUUAUCGAAUUCAUCCAAAGCUUUGGAGACUGCGUUGA
B3: GS2303: dsRNA trigger targeting B. cinerea Bcded1 (XM_001550339.2); trigger SEQ ID NO 24, RNA 36, reverse complement 48 (nucleic acid, listed as Botrytis cinerea)
sense: GGGCUAUAUAAGCUUUCAUCUAGGUUUUCCAAGAAACGCAUUACGAUAGACAUGUUCUCCAAAAAUCUUACUGGUCCUGCUUUCAGCAUUUCCAUGGAUCAUGAAGUCCUCCACUAUGGAAGAUUUGCAAAAUAUUUUCGACAUUGCAUUUUGCUGCAUUUCGCAUUUCUAGAUAGAAAAAAAGUGGGAUUCAUAUUCUCGAUAUUUUCUUCGUUGUCUUUUAUUCACAAGACACAUGGCAAGGGAGGAUACCAUUUGAGAGCUUGAAUUGAAGGCUUUCCUCUUACUUUUUUUAUUUUUCACAUCAUCUACGAGUGGGCGUCUUUUACGAUCAAAUCGAUAUACGACAGUGGCACAAAAUAGAAUAGGCAUUUCUCUUCUUAAAAAAGAUUUAAGGGAAGAGUUGGUGCUUGUUCUCUAUAACGCUGAUGGCAUUCGGAAGUGCUCCUGUCCAUUCAGGCUGAGACUGAGACCCAAAAUGUUGGCAGGUACGGCAGAAAGAAGUCUGCUUCAUAUGAUUGAUGGAGGAAGAAAGAAAUAUGGAAUGCGAUGGAUGAGUAAUUACUUUAAAUGAAUAUGAAAA
antisense: UUUUCAUAUUCAUUUAAAGUAAUUACUCAUCCAUCGCAUUCCAUAUUUCUUUCUUCCUCCAUCAAUCAUAUGAAGCAGACUUCUUUCUGCCGUACCUGCCAACAUUUUGGGUCUCAGUCUCAGCCUGAAUGGACAGGAGCACUUCCGAAUGCCAUCAGCGUUAUAGAGAACAAGCACCAACUCUUCCCUUAAAUCUUUUUUAAGAAGAGAAAUGCCUAUUCUAUUUUGUGCCACUGUCGUAUAUCGAUUUGAUCGUAAAAGACGCCCACUCGUAGAUGAUGUGAAAAAUAAAAAAAGUAAGAGGAAAGCCUUCAAUUCAAGCUCUCAAAUGGUAUCCUCCCUUGCCAUGUGUCUUGUGAAUAAAAGACAACGAAGAAAAUAUCGAGAAUAUGAAUCCCACUUUUUUUCUAUCUAGAAAUGCGAAAUGCAGCAAAAUGCAAUGUCGAAAAUAUUUUGCAAAUCUUCCAUAGUGGAGGACUUCAUGAUCCAUGGAAAUGCUGAAAGCAGGACCAGUAAGAUUUUUGGAGAACAUGUCUAUCGUAAUGCGUUUCUUGGAAAACCUAGAUGAAAGCUUAUAUAGCCC
B4: GS349: dsRNA trigger targeting B. cinerea CDC42 (XM_001545642.2); trigger SEQ ID NO 14, RNA 26, reverse complement 38 (nucleic acid, listed as Botrytis cinerea)
sense: GUUGUCUUGUCUCGCUCAAGCUUGUCCUGUCUGGUCACUUUUCUUUCUGCCUGAUAAUCCAGACCUCGAAAAUAACCAAAAGAUUGGAAAUCGUUUGCUCAUCUUGCAUGCAUUAUUACUUUCCUGGAUCAAUCUCAUUCAACUCGUUCUCGUGCAUUUCAUUCAACCUCAACCCCUACUUUCAGUCAAUUCAAUUUAAUUCAAUCAUUCAAAUCUUUCAUUUCGCACACUUCACAUUCAACCAUCCUCUCUCAAUCAAAUAUCACCACCUCUCUUAUCGAACGUCAUUUUGCAUACAAUCAAUUCCUACAGACCGAGCGCAACUCGAUACAACCAUCGAAUAACUUCUCACACUUGCUUGUUGAAUUGAUUACUGAAGAAAGUGGAUUUCAAAGACCGAUUUUCCCCCUAGAUAUUCAAGAACGGCUUAUUCUUGUCUCGAGACAAAAC
antisense: GUUUUGUCUCGAGACAAGAAUAAGCCGUUCUUGAAUAUCUAGGGGGAAAAUCGGUCUUUGAAAUCCACUUUCUUCAGUAAUCAAUUCAACAAGCAAGUGUGAGAAGUUAUUCGAUGGUUGUAUCGAGUUGCGCUCGGUCUGUAGGAAUUGAUUGUAUGCAAAAUGACGUUCGAUAAGAGAGGUGGUGAUAUUUGAUUGAGAGAGGAUGGUUGAAUGUGAAGUGUGCGAAAUGAAAGAUUUGAAUGAUUGAAUUAAAUUGAAUUGACUGAAAGUAGGGGUUGAGGUUGAAUGAAAUGCACGAGAACGAGUUGAAUGAGAUUGAUCCAGGAAAGUAAUAAUGCAUGCAAGAUGAGCAAACGAUUUCCAAUCUUUUGGUUAUUUUCGAGGUCUGGAUUAUCAGGCAGAAAGAAAAGUGACCAGACAGGACAAGCUUGAGCGAGACAAGACAAC

Assays:
[1] = test system: Botrytis cinerea conidia; test: In vitro liquid-based assay (fungal biomass, 96-well plates, Cytation 5); format: cell-based; conditions: co-incubated with conidia for three days, vs untreated control
Method in brief: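 Conidia (5000/mL stock) were co-incubated with dsRNA or control treatments in pH 6.0 minimal medium. Incubation ran 72 h at 23 °C, shaking at 120 rpm under continuous light. Fungal biomass was measured by brightfield imaging (8 slices per well, 2.5× lens) and expressed as average reduction versus control.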

[2] = test system: Botrytis cinerea B05.10 isolate; test: Greenhouse whole plant assay (tomato 'Lanai', disease severity); format: in vivo; conditions: final rating day (rating #3)
[3] = test system: B. cinerea; test: Open-air field trial on snap bean (Example 4.3, AUDPC of % disease severity); format: in vivo, Botrytis cinerea; conditions: Switch 525 g ai/ha, GS349 20 and 40, GS2280 10 and 40, GS2303 10, 20 and 40, GS2297 20 g ai/ha, FIG. 9
Description: RNAi compositions, each containing a dsRNA comprising a trigger sequence (GS349, GS2280, GS2303, or GS2297) described herein were evaluated for ability to control botrytis on snap bean in open-air filed trials. All test samples were formulated with RO water, propylene glycol, a linear alcohol ethoxylate, a lignosulfanate, sodium citrate dihydate, a polyacrylic acid polymer, two biocide compositions, anhydrous citric acid, and an antifoam, all of which are readily commercially available. Formulation samples were tank mixed with a standard adjuvant, the non-ionic surfactant, Activator 90 0.125%v/v. Compositions were tested at concentrations of 10, g ai/ha, 20 g ai/ha, and 40 g ai/ha. Positive controls were a chemical standard, Switch 525 g ai/ha and a biological standard, Double Nickel LC 9.4 I/ha, both of which were also tank mixed with Activator 90 0.125% v/v. As above, an untreated check was used as a negative control.
Compositions were applied to snap bean plants using a small plot sprayer delivering 50 gallons of water per acre. A total of three applications were used for each sample and positive control. Disease state was evaluated beginning 8 days after the first application and ending 37 days after the third and final application. Percent Disease Severity was assessed and AUDPC was calculated in the same manner as noted in Example 4.1.

[4] = 8 g ai/ha, three runs, four-week-old 'Lanai' tomato plant
[5] = 25 g ai/ha, three runs, four-week-old 'Lanai' tomato plant
[6] = 8 g ai/ha, two runs, three-week-old 'Lanai' tomato plant
[7] = 25 g ai/ha, two runs, three-week-old 'Lanai' tomato plant

Row | Molecule | Average % Reduction in Biomass ([1]; 25 ppm dsRNA) [%] | Average % Reduction in Biomass ([1]; 150 ppm dsRNA) [%] | % control [2, 4] [%] | % control [2, 5] [%] | Disease state compared to treatment with the chemical standard (AUDPC) [3] | % control [2, 6] [%] | % control [2, 7] [%]
1 | B1 | 16 | 33 | 0 | 36 | no significant difference |  | 
2 | B2 | 21 | 45 |  |  |  | 61 | 58
3 | B3 | 13 | 26 | 0 | 34 | no significant difference |  | 
4 | B4 | 8 | 25 |  |  | no significant difference | 46 | 59
